One block for each binder: values may come before it.
Assays:
P3mS = biological target: T1, P3mS; assay: two-hybrid library CC1;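 further: natural log of median RNA to DNA barcode read ratio; higher means stronger binding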
T1 chain: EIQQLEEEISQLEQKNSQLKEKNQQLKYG

P4 = biological target: T2, P4; assay: two-hybrid library CC1; conditions: mean of both orientations;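 further: natural log of median RNA to DNA barcode read ratio; higher means stronger binding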
T2 chain: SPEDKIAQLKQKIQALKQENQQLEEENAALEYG

P4mS = biological target: T3, P4mS; assay: two-hybrid library CC1; conditions: mean of both orientations;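 further: natural log of median RNA to DNA barcode read ratio; higher means stronger binding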
T3 chain: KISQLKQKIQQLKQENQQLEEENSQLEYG

P5SC1 = biological target: T4, P5SC1; assay: two-hybrid library CC1; conditions: mean of both orientations;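 further: natural log of median RNA to DNA barcode read ratio; higher means stronger binding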
T4 chain: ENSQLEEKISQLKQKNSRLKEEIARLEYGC

P5SC2 = biological target: T5, P5SC2; assay: two-hybrid library CC1; conditions: mean of both orientations
T5 chain: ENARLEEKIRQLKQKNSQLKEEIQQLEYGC

P5 = biological target: T6, P5; assay: two-hybrid library CC1; conditions: mean of both orientations
T6 chain: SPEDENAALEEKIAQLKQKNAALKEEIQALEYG

P5mS = biological target: T7, P5mS; assay: two-hybrid library CC1; conditions: mean of both orientations
T7 chain: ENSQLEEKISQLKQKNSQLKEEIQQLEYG

P6SC1 = biological target: T8, P6SC1; assay: two-hybrid library CC1; conditions: mean of both orientations
T8 chain: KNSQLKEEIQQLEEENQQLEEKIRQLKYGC

P6SC2 = biological target: T9, P6SC2; assay: two-hybrid library CC1; conditions: mean of both orientations
T9 chain: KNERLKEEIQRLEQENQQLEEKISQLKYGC

P6 = biological target: T10, P6; assay: two-hybrid library CC1; conditions: mean of both orientations
T10 chain: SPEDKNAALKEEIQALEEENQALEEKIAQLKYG

P6mS = biological target: T11, P6mS; assay: two-hybrid library CC1; conditions: mean of both orientations
T11 chain: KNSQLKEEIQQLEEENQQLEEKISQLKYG

P7 = biological target: T12, P7; assay: two-hybrid library CC1; conditions: mean of both orientations
T12 chain: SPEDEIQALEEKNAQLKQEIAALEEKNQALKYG

P7mS = biological target: T13, P7mS; assay: two-hybrid library CC1; conditions: mean of both orientations
T13 chain: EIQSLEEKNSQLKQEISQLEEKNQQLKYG

P8 = biological target: T14, P8; assay: two-hybrid library CC1; conditions: mean of both orientations
T14 chain: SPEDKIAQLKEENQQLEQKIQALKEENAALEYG

P8mS = biological target: T15, P8mS; assay: two-hybrid library CC1; conditions: mean of both orientations
T15 chain: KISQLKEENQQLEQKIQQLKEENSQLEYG

P9 = biological target: T16, P9; assay: two-hybrid library CC1; conditions: mean of both orientations
T16 chain: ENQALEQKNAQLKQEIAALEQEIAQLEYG

O12 = biological target: T17, O12; assay: two-hybrid library CCNG1
T17 chain: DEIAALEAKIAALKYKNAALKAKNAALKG

O13 = biological target: T18, O13; assay: two-hybrid library CCNG1
T18 chain: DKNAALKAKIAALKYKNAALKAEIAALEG

O14 = biological target: T19, O14; assay: two-hybrid library CCNG1
T19 chain: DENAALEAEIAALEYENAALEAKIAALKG

O15 = biological target: T20, O15; assay: two-hybrid library CCNG1
T20 chain: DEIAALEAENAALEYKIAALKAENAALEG

O16 = biological target: T21, O16; assay: two-hybrid library CCNG1
T21 chain: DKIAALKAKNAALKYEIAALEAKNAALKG

O2 = biological target: T22, O2; assay: two-hybrid library CCNG1
T22 chain: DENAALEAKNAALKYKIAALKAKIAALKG

O3 = biological target: T23, O3; assay: two-hybrid library CCNG1
T23 chain: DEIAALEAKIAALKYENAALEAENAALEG

O4 = biological target: T24, O4; assay: two-hybrid library CCNG1
T24 chain: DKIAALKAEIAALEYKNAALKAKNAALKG

O5 = biological target: T25, O5; assay: two-hybrid library CCNG1
T25 chain: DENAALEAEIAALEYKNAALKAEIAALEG

O6 = biological target: T26, O6; assay: two-hybrid library CCNG1
T26 chain: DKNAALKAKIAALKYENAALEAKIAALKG

O7 = biological target: T27, O7; assay: two-hybrid library CCNG1
T27 chain: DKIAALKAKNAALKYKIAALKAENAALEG

O8 = biological target: T28, O8; assay: two-hybrid library CCNG1
T28 chain: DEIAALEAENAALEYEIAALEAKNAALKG

O9 = biological target: T29, O9; assay: two-hybrid library CCNG1
T29 chain: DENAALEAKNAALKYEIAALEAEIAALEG

Binder: EIQQLEEEISQLEQKNSQLKEKNQQLKYG [P3mS]
- interaction score (P3mS): -3.24
- interaction score (P4): -0.0449
- interaction score (P4mS): 0.221
- interaction score (P5SC1): -2.77
- interaction score (P5SC2): -2.78
- interaction score (P5): -2.93
- interaction score (P5mS): -2.69
- interaction score (P6SC1): -2.8
- interaction score (P6SC2): -2.5
- interaction score (P6): -2.8
- interaction score (P6mS): -2.74
- interaction score (P7): -2.64
- interaction score (P7mS): -2.96
- interaction score (P8): -2.54
- interaction score (P8mS): -2.87
- interaction score (P9): -2.34

- interaction score (O12): -2.08
- interaction score (O13): -2.04
- interaction score (O14): -1.45
- interaction score (O15): -1.36
- interaction score (O16): -2.57
- interaction score (O2): -2.46
- interaction score (O3): 0.318
- interaction score (O4): -1.08
- interaction score (O5): -2.03
- interaction score (O6): -2.27
- interaction score (O7): -2.15
- interaction score (O8): -1.51
- interaction score (O9): -1.67
Binder: DEIAALEAKIAALKYKNAALKAKNAALKG [O12]

Reference: publication PMC10397247
